The text below walks through data of publication PMC9352689 (Nature Communications, 2022).

In assay [1] the target is HCoV-OC43 S, full-length, on the cell surface (HCoV-OC43, strain , UniProt P36334). Description: flow cytometry on cells. Particulars: one partner purified.
The target in assay [2] is HCoV-NL63 S, full-length, on the cell surface (HCoV-NL63, strain , UniProt Q6Q1S2). Description: flow cytometry on cells. Particulars: one partner purified.
The target in assay [3] is bat CoV SHC014 S, full-length, on the cell surface (Bat SARS-like coronavirus RsSHC014, UniProt U5WLK5). Description: flow cytometry on cells. Particulars: one partner purified.
Assay [4] addresses T1, SARS-CoV-2 S, full-length wild type, expressed on the cell surface (SARS-CoV-2, labelled B.1 in Fig. S6A, UniProt P0DTC2).
T1 construct: source: HEK293T, transfected, on the cell surface
Kind of assay: flow cytometry on cells. Particulars: one partner purified. (In flow cytometry, cells or beads pass a laser one at a time.)

The target of assay [5] is MERS-CoV S, full-length, on the cell surface (MERS-CoV, strain , UniProt K9N5Q8). Description: flow cytometry on cells. The note with it: one partner purified.
The target in assay [6] is SARS-CoV S, full-length, on the cell surface (SARS-CoV, strain , UniProt P59594). Kind of assay: flow cytometry on cells. Particulars: one partner purified.
Assay [7] concerns the target HCoV-HKU1 S, full-length, on the cell surface (HCoV-HKU1, isolate  (entry: …, UniProt Q5MQD0)). Kind of assay: flow cytometry on cells. Particulars: one partner purified.
Assay [8] deals with HCoV-229E S, full-length, on the cell surface (HCoV-229E, strain , UniProt P15423). Kind of assay: flow cytometry on cells. Particulars: one partner purified.
For assay [9], the target named is SARS-CoV-2 soluble S2, his-tagged (SARS-CoV-2, ancestral (Wuhan-Hu-1), UniProt P0DTC2). Description: ELISA; COVA MAbs on SARS-CoV-2 S and on soluble S2 (Fig. S5A); format not told. Particulars: both partners purified. In general terms: ELISA stands for enzyme-linked immunosorbent assay.

B1: COVA1-07 (antibody, V domains shown)
VH: QVQLVESGAEVKKPGSSVKVSCKASGGTLSSYAITWVRQAPGQGLEWVGGIIPIFGTANYAQKFQGRVTITADESTSTAYMELSSLRSEDTAVYYCARVGAYDSSGYSNDYWGQGTLVTVSS
VL: DIQLTQSPATLSLSPGERATLSCRASQSVSSYLAWYQQKPGQAPRLLIYDASNRATGIPARFSGSGSGTDFTLTISSLEPEDFAVYYCQQRSNWPPRVTFGGGTKVEIK
notes: copies: 2 + 2
Regarding B1, the binding result was “no binding (tested: 50 μg/mL)” in [1]; “no binding (tested: 50 μg/mL)” in [2]; “binds” in assay [3]; “binds” in assay [4]; “no binding (tested: 50 μg/mL)” in assay [5]; “binds” in [6]. Moreover, the binding result is reported as “no binding (tested: 50 μg/mL)” in assay [7], “no binding (tested: 50 μg/mL)” in assay [8] and “binds” in assay [9].

B2: COVA2-18 (antibody, V domains shown)
VH: EVQLVQSGAEVKKPGSSVKVSCKASGGTFSSYAISWVRQAPGQGLEWMGGIIPIFGTTNYAQKFQGRVTITTDESTSTAYMELSSLRSEDTAVYYCARVYSYDSSGYYLEYWGQGTRVTVSS
VL: EIVLTQSPATLSLSPGERATLSCRASQSVSSYLAWYQQKPGQAPRLLIYDASNRATGIPARFSGSGSGTDFTLTISSLEPEDFAVYYCQQRSNWPPSITFGQGTRLEIK
notes: copies: 2 + 2
Take B2: the binding result is on record as “no binding (tested: 50 μg/mL)” in [1]; “no binding (tested: 50 μg/mL)” in assay [2]; “binds” in [3]; “binds” in [4]; “no binding (tested: 50 μg/mL)” in assay [5]; “binds” in [6]. Moreover, the values for the binding result in assay [7], in assay [8] and in assay [9] were “no binding (tested: 50 μg/mL)”, “no binding (tested: 50 μg/mL)” and “binds”, respectively.

B3: COVA2-14 (antibody, V domains shown)
VH: QVQLVQSGAEVKKPGSSVKVSCKASGGTFSSYAIIWVRQAPGQGLEWMGGIIPIFGTANYAQKFQGRVTITTDESTSTAYMELSSLRSEDTAVYYCARVRYYDSSGYYEDYWGQGTLVTVSS
VL: EIVLTQSPATLSLSPGERATLSCRASQSVSSYLAWYQQEPGQAPRLLIYDASNRATGIPARFSGSGSGTDFTLTISSLEPEDFAVYYCQQRSNWPPMYTFGQGTKVEIK
notes: copies: 2 + 2
With B3, the binding result was “no binding (tested: 50 μg/mL)” in assay [1]; “no binding (tested: 50 μg/mL)” in assay [2]; “binds” in assay [3]; “binds” in assay [4]; “no binding (tested: 50 μg/mL)” in assay [5]; “binds” in assay [6]. Moreover, the binding result in assay [7] is reported as “no binding (tested: 50 μg/mL)”; in assay [8], “no binding (tested: 50 μg/mL)”; in assay [9], “binds”.
